The labels stand for the following.
B1: TPR t1 (parent)
chain: GACCAAUCUGCCCUCAGAGCUCGAGAACAUCUUCGGAUGCAGAGGAGGCAGGCUUCGGUGGCGCGAUAGCGCCAACGUCCUCAACCUCCAAUGCAUCCCACCACAUGAUGAUGCCUGAAGAGCCUUGGUUUUUUG

The source of these data is the RNAGym collection of RNA variant scans (doi:10.1073/pnas.2313332121).

The variants in this series derive from B1. The series is described as follows: polymerase ribozyme fitness, log enrichment relative to wild type (log ratio); higher = more active; in vitro selection for triplet polymerase activity. In short, it runs like this: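 Mutant libraries were PCR-built and transcribed for each subunit of a heterodimeric triplet polymerase ribozyme and selected for one round in triplicate at −7 °C, frozen, before gel excision of extended constructs and streptavidin-bead capture. Input and output libraries were Illumina-sequenced, keeping genotypes with ≥10 input reads and ≥1 read per output. Fitness is a logarithmic ratio of genotype to wild-type enrichment, in base 2, using inverse-variance-weighted replicate averages.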
On to C82U A83U A111U, for which the “polymerase ribozyme fitness (log ratio)” value is -3.12.
Consider C12G C15U C56U G77C A83C C88A U106A U132A, for which the “polymerase ribozyme fitness (log ratio)” value is -3.55.
Turning to U21G A84U C114A, the “polymerase ribozyme fitness (log ratio)” value is -1.88.
For U21A U130G the value was 0.0378.
On to G77C C86A G117A, for which the “polymerase ribozyme fitness (log ratio)” value is -3.88.
Take C3G C11U C97A G120C: the “polymerase ribozyme fitness (log ratio)” value was -5.66.
As to G44U C70U, the “polymerase ribozyme fitness (log ratio)” value was -2.01.
As for C11U U109G, the “polymerase ribozyme fitness (log ratio)” value was -5.84.
Consider G52A C72G, for which the “polymerase ribozyme fitness (log ratio)” value is -0.491.
Take A26G U59A C62A G63A: the “polymerase ribozyme fitness (log ratio)” value was -5.96.
For the variant A43G G60C C73A C88A, the “polymerase ribozyme fitness (log ratio)” value was -3.87.
For A91U C101A the value was -2.72; for C64U G127C, -1.82.
Consider C56G C72U C88U U106A U133A, for which the “polymerase ribozyme fitness (log ratio)” value was -1.24.
On to G39U U78C U96A, for which the “polymerase ribozyme fitness (log ratio)” value is -4.33.
For C123G U133A the value was 2.19.
As to G69U G93U, the “polymerase ribozyme fitness (log ratio)” value was -1.01.
Regarding C15G C62A, the “polymerase ribozyme fitness (log ratio)” value was -3.96.
On to U38G C49A C73U C86U U109G U126A, for which the “polymerase ribozyme fitness (log ratio)” value was -5.53.
In the case of G39U A84C G122A C123A C124A, the “polymerase ribozyme fitness (log ratio)” value is 0.979.
Then C86A U96C, with -0.678; and A46U G113U, with -3.73.
With C56U G69U C82U A84U, the “polymerase ribozyme fitness (log ratio)” value was -3.
On to G25A G71A C79G C115U, for which the “polymerase ribozyme fitness (log ratio)” value is -7.59.
Take G69U G110A U125A G127A: the “polymerase ribozyme fitness (log ratio)” value was -0.849.
Regarding C8G G52U C73A U92G, the “polymerase ribozyme fitness (log ratio)” value is -2.91.
On to G48A G110C, for which the “polymerase ribozyme fitness (log ratio)” value was -4.33.
With U9C C56G, the “polymerase ribozyme fitness (log ratio)” value was determined as 0.559.
Then C3A A18C U112C U130C, with -0.927; and G93A U96A, with -1.69; and U7A G63C U81G, with -4.09.
Then A66U C73A C89U, with -1.72; and C12U G117U, with 0.316; and U109A G120C, with -4.
A41G C73U U125C: the “polymerase ribozyme fitness (log ratio)” value is -2.74.
For G47U G52A C73A C86A, the “polymerase ribozyme fitness (log ratio)” value was -0.962.
As to U59A G117A, the “polymerase ribozyme fitness (log ratio)” value is -1.36.
As for C15G C88G G120C, the “polymerase ribozyme fitness (log ratio)” value is -1.47.
Then U38G G39U U54G G69U U87A G113C, with -4.25.
In the case of C64U G120A G135A, the “polymerase ribozyme fitness (log ratio)” value is 0.278.
For C72G U96C, the “polymerase ribozyme fitness (log ratio)” value is -1.25.
With C72G U96A, the “polymerase ribozyme fitness (log ratio)” value was -2.18.
Regarding C31U U81A C88G A95U U112A, the “polymerase ribozyme fitness (log ratio)” value was -6.66.
Regarding G39U G52C C53A A83U, the “polymerase ribozyme fitness (log ratio)” value was -3.01.
On to G42C A66U G120A, for which the “polymerase ribozyme fitness (log ratio)” value was -2.6.
Turning to C53G C89U, the “polymerase ribozyme fitness (log ratio)” value was -0.681.
As to C12U G17U C94U G113A, the “polymerase ribozyme fitness (log ratio)” value was -2.71.
Then A6U G44U, with -1.52; and G45U U96G, with -1.78.
Then G69U G127A U131A, with -2.75; and U9C A43U, with -0.741; and C53A A100G G113A G120C, with -4.41.
Then C64U A103G, with -4.77; and G58A G61A C85A G113A, with 0.19.
On to G17A C20U G57C G61A, for which the “polymerase ribozyme fitness (log ratio)” value was -4.32.
Consider G48U C73G A95G, for which the “polymerase ribozyme fitness (log ratio)” value is -1.55.
With C4G G57A G58C A95C G113U U125C, the “polymerase ribozyme fitness (log ratio)” value was -6.6.
On to G42A A74C G120C, for which the “polymerase ribozyme fitness (log ratio)” value is -2.11.
With C56A A83U, the “polymerase ribozyme fitness (log ratio)” value is -1.62.
As to A27C U54C, the “polymerase ribozyme fitness (log ratio)” value was -2.56.
C12U A43U C56G: the “polymerase ribozyme fitness (log ratio)” value was -1.63.
For C8A U129A the value was -0.0105.
Take U7G A111U: the “polymerase ribozyme fitness (log ratio)” value was -1.87.
On to A16U C56G U125A, for which the “polymerase ribozyme fitness (log ratio)” value is -3.24.
G39C C114U: the “polymerase ribozyme fitness (log ratio)” value is -1.75.
For C12A G51U G77A, the “polymerase ribozyme fitness (log ratio)” value is -1.98.
For the variant C13G A41U C72G C101U, the “polymerase ribozyme fitness (log ratio)” value was -3.53.
Regarding C20U G48U, the “polymerase ribozyme fitness (log ratio)” value was -2.05.
As to G42C A50U C82A, the “polymerase ribozyme fitness (log ratio)” value was -2.49.
Regarding U59C G117A, the “polymerase ribozyme fitness (log ratio)” value was -1.62.
For the variant G10C C15A G69U U112G, the “polymerase ribozyme fitness (log ratio)” value was -1.87.
Take C13A A41G G69A: the “polymerase ribozyme fitness (log ratio)” value was -5.37.
For the variant C62U C98A A103C U129C, the “polymerase ribozyme fitness (log ratio)” value was -6.12.
Then C12U A111U, with -2.01; and C13U A27U C49A U130C U132C, with -2.53.
As for C3G C56U U92G C123A, the “polymerase ribozyme fitness (log ratio)” value is -3.5.
For A50U C72G, the “polymerase ribozyme fitness (log ratio)” value was -1.6.
As to C15A U109A, the “polymerase ribozyme fitness (log ratio)” value was -5.42.
On to C15A U33A G117A, for which the “polymerase ribozyme fitness (log ratio)” value is -5.68.
As for C11U A84G C89U G93U, the “polymerase ribozyme fitness (log ratio)” value was -2.61.
With G45C C115U, the “polymerase ribozyme fitness (log ratio)” value is -3.17.
For U59C C97A U109C C114G G122U, the “polymerase ribozyme fitness (log ratio)” value was -6.59.
Then A2U G113C, with -3.73.
Turning to C53A U78C C82U C102U, the “polymerase ribozyme fitness (log ratio)” value was -0.997.
Regarding C20U U112A, the “polymerase ribozyme fitness (log ratio)” value turned out to be 0.887.
In the case of U7G C28G U106A, the “polymerase ribozyme fitness (log ratio)” value was -1.02.
Consider A16C C123G, for which the “polymerase ribozyme fitness (log ratio)” value is -0.273.
For the variant U9G C72A, the “polymerase ribozyme fitness (log ratio)” value was -0.48.
With C11U A27U G120A U132A, the “polymerase ribozyme fitness (log ratio)” value was -1.47.
On to A46G C64U G110U C123G, for which the “polymerase ribozyme fitness (log ratio)” value is -1.18.
For U38G G61C U96G G122A, the “polymerase ribozyme fitness (log ratio)” value is -4.11.
Turning to C8U C73U U78C, the “polymerase ribozyme fitness (log ratio)” value stood at 0.277.
For C22U G39A C64U C99U U130C the value was -6.29; for G63U G120A, -0.542.
In the case of C8U C12U C101G A121C, the “polymerase ribozyme fitness (log ratio)” value was -0.571.
Regarding C40A U133G, the “polymerase ribozyme fitness (log ratio)” value was -1.45.
For C89G A90G G127C the value was -2.22; for U14A G19A G42U A43C C70A, -6.34.
As for G52U C72G C79A G110A C123A, the “polymerase ribozyme fitness (log ratio)” value was -3.69.
Then A5U G44A A46U C56U U126G U133A, with -2.99; and C13U G17A, with -1.44; and U7G G51C U55C C73A, with -3.19.
For C8A C49A C64U C86U G93U C94U C123A, the “polymerase ribozyme fitness (log ratio)” value was -0.145.
With A46G G47A U59A, the “polymerase ribozyme fitness (log ratio)” value is -0.512.
On to C13A U21A A37C G93A, for which the “polymerase ribozyme fitness (log ratio)” value is -2.9.
As for U9G C13U G17U U87C, the “polymerase ribozyme fitness (log ratio)” value is -0.186.
For A37C A83U the value was -0.456; for C56U G69A G113U C123G U130G, -6.22; for U81A C89U, -0.112.
For A2G G93C, the “polymerase ribozyme fitness (log ratio)” value is -1.48.
Regarding U78C C80U C89U G117C A119G, the “polymerase ribozyme fitness (log ratio)” value is -1.72.
As for G77U C82U, the “polymerase ribozyme fitness (log ratio)” value was -0.811.
Regarding C4U G19A C56G U106A C123G, the “polymerase ribozyme fitness (log ratio)” value is -3.72.
Regarding C8A C11G A103C A119U G120A, the “polymerase ribozyme fitness (log ratio)” value is -3.31.
As to A18C C124U, the “polymerase ribozyme fitness (log ratio)” value is -1.22.
For G51A C56U A84U C99U A121U, the “polymerase ribozyme fitness (log ratio)” value is -5.26.
Then A37U A46U C64U C115A, with -3.03; and C11U G58C G120U, with 0.332.
Turning to C20G G93C, the “polymerase ribozyme fitness (log ratio)” value was -4.4.
For C11U C49A G107U G120A the value was -4.45.
For C86G A91G the value was -1.96; for C85U G113C C114A, -5.96; for G48A G69C, -1.33.
For A5C G71U C82A C101G the value was -2.98; for G45A U112A, 1.41.
Take A37U C76U: the “polymerase ribozyme fitness (log ratio)” value was -0.3.
As to A18C A43G C114U U129C, the “polymerase ribozyme fitness (log ratio)” value is -3.16.
Regarding C3A C8A C12G G60A U92A C124A, the “polymerase ribozyme fitness (log ratio)” value is -2.58.
Take G48U C101U: the “polymerase ribozyme fitness (log ratio)” value was -1.59.
As for C15U G58C G120C, the “polymerase ribozyme fitness (log ratio)” value turned out to be 0.694.
As for A5C G63C C114U, the “polymerase ribozyme fitness (log ratio)” value was -2.9.
Then A83U, with -0.119; and C31A A37G C80G C86U U92C A105U A111U, with -7.03.
With C53A G71A C85A G135U, the “polymerase ribozyme fitness (log ratio)” value is -4.02.
Turning to A18G C70A A91C G113A, the “polymerase ribozyme fitness (log ratio)” value is -2.9.
Then A66U C85U G117A, with -4.29; and G60C G77A, with -1.47; and A18G G36A G61A U116C A118G, with -3.23.
Then G44U C56A C102U, with -3.03.
C12G A43G: the “polymerase ribozyme fitness (log ratio)” value was -1.17.
A18C C62U U87C: the “polymerase ribozyme fitness (log ratio)” value is -3.61.
Regarding A84G G120A, the “polymerase ribozyme fitness (log ratio)” value was -0.185.
In the case of C8U C53U C73U A105C U125G, the “polymerase ribozyme fitness (log ratio)” value was -1.94.
For A6U C15A G51C G71U C124U, the “polymerase ribozyme fitness (log ratio)” value is -5.41.
Regarding C8A C13G G60C A90U U109G A119U, the “polymerase ribozyme fitness (log ratio)” value is -6.32.
Then U14G U21G C40A G48C U106A, with -5.19; and C15U C62G C85A, with -4.14; and C15A G120C, with -0.2.
As to C11G G77U C80U G113U, the “polymerase ribozyme fitness (log ratio)” value was -3.12.
In the case of U9A A90C, the “polymerase ribozyme fitness (log ratio)” value was -0.569.
Take A41G U112C: the “polymerase ribozyme fitness (log ratio)” value was found to be 0.756.
Then U14A G61A G117A, with -4.06.
G69U A121G: the “polymerase ribozyme fitness (log ratio)” value worked out at 2.47.
As to C3G G60U U87A, the “polymerase ribozyme fitness (log ratio)” value was -2.32.
As for C34A C101G U129A, the “polymerase ribozyme fitness (log ratio)” value was -4.66.
On to U54C C115U G127C, for which the “polymerase ribozyme fitness (log ratio)” value is -1.97.
Turning to U14G C49G, the “polymerase ribozyme fitness (log ratio)” value was -2.23.
Turning to G45U G52U, the “polymerase ribozyme fitness (log ratio)” value is -2.65.
As for C94G G113A, the “polymerase ribozyme fitness (log ratio)” value is -3.13.
C8A C20G G45U C73U C123G: the “polymerase ribozyme fitness (log ratio)” value was -5.63.
With U30C G45U, the “polymerase ribozyme fitness (log ratio)” value was -4.52.
Turning to C85U U109G, the “polymerase ribozyme fitness (log ratio)” value is -5.2.
For U38C C64A the value was -6.78; for C72A C123G, 1.56; for A27U C49U A90G G93U, -3.23.
Take C12A A27G G93A: the “polymerase ribozyme fitness (log ratio)” value is -5.16.
Consider C62G C124A, for which the “polymerase ribozyme fitness (log ratio)” value was -0.74.
